{"source": "patent KR20160024853A", "about": "“당뇨병 치료를 위한 주사형 나노-네트워크 겔” (메사추세츠 인스티튜트 오브 테크놀로지, priority 2013, dated 2016)", "key": {"[1]": {"assay": "Plasma human insulin in STZ-induced diabetic mice (human insulin ELISA)", "details": "mouse, in vivo"}, "[2]": {"system": "STZ-induced diabetic mice (male C57B6)", "assay": "Blood glucose control in STZ-induced diabetic mice after one subcutaneous injection", "type": "in vivo, mouse", "details": "after administration"}}}
{"substance": "인슐린 용액: human recombinant insulin solution (zinc salt, Invitrogen)", "values": [{"measurement": "plasma insulin concentration on the day after administration", "setting": "[1]", "result": "급격한 감소"}, {"measurement": "time when BG rose to the hyperglycemic range", "setting": "[2]", "result": "둘째 날"}]}
